# Measured values taken from patent US20250073239A1, “COMBINATION OF AN IMMUNOCYTOKINE COMPRISING IL-12 AND A KINASE INHIBITOR” (PHILOGEN S.P.A., priority 2022, published 2025).
# B1: L19-IL12: fusion protein of the anti-EDB L19 antibody in single chain diabody format fused to single-chain murine IL-12 (SEQ ID NO 19) (protein)
# chain: MWELEKDVYVVEVDWTPDAPGETVNLTCDTPEEDDITWTSDQRHGVIGSGKTLTITVKEFLDAGQYTCHKGGETLSHSHLLLHKKENGIWSTEILKNFKNKTFLKCEAPNYSGRFTCSWLVQRNMDLKFNIKSSSSSPDSRAVTCGMASLSAEKVTLDQRDYEKYSVSCQEDVTCPTAEETLPIELALEARQQNKYENYSTSFFIRDIIKPDPPKNLQMRPLKNSQVEVSWEYPDSWSTPHSYFSLKFFVRIQRKKEKMKETEEGCNQKGAFLVERTSTEVQCKGGNVCVQAQDRYYNSSCSKWACVPCRVRSGGGGSGGGGSGGGGSRVIPVSGPARCLSQSRNLLKTTDDMVKTAREKLKHYSCTAEDIDHEDITRDQTSTLKTCLPLELHKNESCLATRETSSTTRGSCLPPQKTSLMMTLCLGSIYEDLKMYQTEFQAINAALQNHNHQQIILDKGMLVAIDELMQSLNHNGETLRQKPPVGEADPYRVKMKLCILLHAFSTRVVTINRVMGYLSSAGSADGEVQLLESGGGLVQPGGSLRLSCAASGFTFSSFSMSWVRQAPGKGLEWVSSISGSSGTTYYADSVKGRFTISRDNSKNTLYLQMNSLRAEDTAVYYCAKPFPYFDYWGQGTLVTVSSGSSGGEIVLTQSPGTLSLSPGERATLSCRASQSVSSSFLAWYQQKPGQAPRLLIYYASSRATGIPDRFSGSGSGTDFTLTISRLEPEDFAVYYCQQTGRIPPTFGQGTKVEIKSSSSGSSSSGSSSSGEVQLLESGGGLVQPGGSLRLSCAASGFTFSSFSMSWVRQAPGKGLEWVSSISGSSGTTYYADSVKGRFTISRDNSKNTLYLQMNSLRAEDTAVYYCAKPFPYFDYWGQGTLVTVSSGSSGGEIVLTQSPGTLSLSPGERATLSCRASQSVSSSFLAWYQQKPGQAPRLLIYYASSRATGIPDRFSGSGSGTDFTLTISRLEPEDFAVYYCQQTGRIPPTFGQGTKVEIK
# modifications: immunocytokine sequence
# How the values were obtained:
# [1] = rodents, cited from earlier work
# [2] = humans, patients with cancer; cited from earlier work
# [3] = system: MC-38 cells, derived from C57BL/6 murine colon adenocarcinoma cells; experiment: Therapy experiments: tumour volume in MC-38 tumor-bearing mice; format: in vivo, C57BL/6 mice; conditions: on day 8, 11 and 14
# Experimental: MC-38 cells, derived from C57BL/6 murine colon adenocarcinoma cells were cultured in DMEM medium supplemented with Fetal Bovine Serum (10%) and antibiotic-antimycotic (1%) following the supplier's protocol and kept in culture for no longer than 10 passages with a confluence lower than 90%. Eight-week-old female C57BL/6 mice were used for the experiment.
# MC-38 cells were grown to 80% confluence and detached with Trypsin-EDTA 0.05%. Cells were washed, counted and re-suspended in HBSS to a final concentration of 1×10^7 cells ml^−1. Aliquots of 1×10^6 cells (100 μl of the suspension) were injected subcutaneously in the right flank of each animal. Tumor volume was determined with the following formula: (length×width^2×0.5) measured with a caliper.
# Preparation of the tumor cells and tumor implantation have been done as described above in chapters 2.1 and 2.2.
# [4] = Toxicity monitored by daily body weighing of MC-38 tumor-bearing mice; conditions: for weight loss: alone or with Ruxolitinib 75 mg/kg s.c., day 8, 11, 14
# Experimental: When tumors reached an average of about 50-100 mm^3, MC-38 tumor-bearing mice were randomized, and different treatments were started. Eight different groups (4/5 mice per group) received the following treatments: • (i) i.v. vehicle on day 8, 11 and 14 after tumor implantation • (ii) s.c. Ruxolitinib (75 mg/kg) on day 8, 11 and 14 after tumor implantation • (iii) i.v. L19-IL12 (0.6 mg/kg) on day 8, 11 and 14 after tumor implantation • (iv) i.v. L19-IL12 (0.9 mg/kg) on day 8, 11 and 14 after tumor implantation • (v) i.v. L19-IL12 (1.2 mg/kg) on day 8, 11 and 14 after tumor implantation • (vi) s.c Ruxolitinib (75 mg/kg) and i.v. L19-IL12 (0.6 mg/kg) on day 8, 11 and 14 after tumor implantation • (vii) s.c. Ruxolitinib (75 mg/kg) and i.v. L19-IL12 (0.9 mg/kg) on day 8, 11 and 14 after tumor implantation • (viii) s.c. Ruxolitinib (75 mg/kg) and i.v. L19-IL12 (1.2 mg/kg) on day 8, 11 and 14 after tumor implantation
# Ruxolitinib was always administered 10 minutes prior the subsequent administration of L19-IL12 at the three different dose levels.
# Toxicity of the different treatments was monitored by daily body weighing and general appearance of the animals.
molecule,measurement,setting,value
N#CC[C@H](C1CCCC1)n1cc(-c2ncnc3[nH]ccc23)cn1 [Ruxolitinib],blood half-life,[1]; after injection,less than 1 hour
same,time to complete wash-out from blood,[1],≤ 24 h
recombinant human IL-12: recombinant human interleukin-12 cytokine tested in clinical trials in patients with cancer,maximal tolerated dose,[2],0.5 μg/kg of body weight
B1,tumor growth (antitumor activity),"[3]; L19-IL12 0.6, 0.9 or […] i.v., alone or with Ruxolitinib 75 mg/kg s.c. 10 min before",effectively prevented tumor growth
same,tumor growth (antitumor activity),"[3]; high dose L19-IL12 2.4 or 3 mg/kg i.v., alone or with Ruxolitinib 75 mg/kg s.c.",effectively prevented tumor growth
same,weight loss,[4]; L19-IL12 0.6 mg/kg i.v.,caused a weight loss
same,weight loss,[4]; L19-IL12 0.9 mg/kg i.v.,more severe toxicity
same,weight loss,[4]; L19-IL12 […] i.v.,more severe toxicity
same,weight loss,[4]; high dose L19-IL12 2.4 or 3 mg/kg i.v.,> 15%
same,outcome of the weight loss for the animals,[4]; high dose L19-IL12 2.4 or 3 mg/kg monotherapy,sacrifice of the mice for ethical reasons
